{"source": "paper PMC4103484", "about": "“Functional effects of polymorphisms on glucocorticoid receptor modulation of human anxiogenic substance-P gene promoter activity in primary amygdala neurones”", "molecules": {"B1": {"name": "GRE-cons (dsDNA)", "DNA 1": "TAAGTTTATGGTTACAAACTGTTCTTAAAACGAGG", "DNA 2": "CCTCGTTTTAAGAACAGTTTGTAACCATAAACTTA"}, "B2": {"name": "RO (random oligonucleotide) (dsDNA)", "DNA 1": "CGAGCACCCTTCACCCTCCAGGCTTAACGG", "DNA 2": "CCGTTAAGCCTGGAGGGTGAAGGGTGCTCG"}}, "key": {"[1]": {"target": "T1, glucocorticoid receptor alpha (GRα) (human) (UniProt P04150)", "T1 sequence": "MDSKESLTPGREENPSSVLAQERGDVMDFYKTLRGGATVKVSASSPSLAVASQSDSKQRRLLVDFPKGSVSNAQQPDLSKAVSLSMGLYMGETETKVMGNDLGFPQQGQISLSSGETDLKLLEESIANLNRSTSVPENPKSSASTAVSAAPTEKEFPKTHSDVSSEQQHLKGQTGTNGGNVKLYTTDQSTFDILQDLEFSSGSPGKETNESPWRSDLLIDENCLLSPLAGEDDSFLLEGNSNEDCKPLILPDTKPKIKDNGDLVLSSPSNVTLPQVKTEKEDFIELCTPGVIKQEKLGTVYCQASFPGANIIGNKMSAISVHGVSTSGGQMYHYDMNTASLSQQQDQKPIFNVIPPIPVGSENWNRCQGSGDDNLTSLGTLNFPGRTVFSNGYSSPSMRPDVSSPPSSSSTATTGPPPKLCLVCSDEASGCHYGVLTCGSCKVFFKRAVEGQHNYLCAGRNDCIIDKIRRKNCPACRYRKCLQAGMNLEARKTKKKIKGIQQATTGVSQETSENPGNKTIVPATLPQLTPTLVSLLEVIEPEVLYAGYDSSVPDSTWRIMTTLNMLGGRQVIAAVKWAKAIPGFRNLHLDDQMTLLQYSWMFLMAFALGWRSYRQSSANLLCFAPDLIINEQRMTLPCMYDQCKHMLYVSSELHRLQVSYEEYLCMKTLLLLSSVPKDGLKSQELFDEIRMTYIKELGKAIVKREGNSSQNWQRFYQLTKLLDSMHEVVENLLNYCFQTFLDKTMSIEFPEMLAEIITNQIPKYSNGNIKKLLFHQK", "assay": "EMSA", "conditions": "reference; EMSA: 20 fmol biotin probe with 2.0 uM GRα or 10 ug nuclear extract; buffer as Hay et al. 2005 with EDTA replaced by 50 uM ZnSO4; competitor 100x; 6% native …"}, "[2]": {"target": "T2, glucocorticoid receptor alpha (GRα) (human, UniProt P04150 1-777)", "assay": "EMSA; EMSA: 20 fmol biotin probe with 2.0 uM GRα or 10 ug nuclear extract; buffer as Hay et al. 2005 with EDTA replaced by 50 uM ZnSO4; competitor 100x; 6% native gel, 0.5x TBE pH 8.3; binding salt, pH and temperature not stated", "conditions": "protein: recombinant; chain copies: 2; blunt"}, "[3]": {"target": "T2, glucocorticoid receptor alpha (GRα)", "assay": "competition; 100x unlabelled, vs 2GR probe; EMSA: 20 fmol biotin probe with 2.0 uM GRα or 10 ug nuclear extract; buffer as Hay et al. 2005 with EDTA replaced by 50 uM ZnSO4; competitor 100x; 6% native gel, 0.5x TBE pH 8.3; binding salt, pH and temperature not stated", "conditions": "protein: recombinant; chain copies: 2; blunt"}}}
{"molecule": "GAAGCAAAAAACGTCCTGTTCAACCCCTGCTCCTG (double strand) [SNP-G (SNPGR-G)]", "values": [{"measurement": "binding signal", "setting": "[1]", "value": "100 % of SNP-G"}]}
{"molecule": "B1", "values": [{"measurement": "binding result", "setting": "[2]", "value": "binds"}]}
{"molecule": "B2", "values": [{"measurement": "binding result", "setting": "[3]", "value": "no binding"}]}
